Target: SARS-CoV-2 Wuhan (WT) spike protein RBD, His-tagged (SARS-CoV-2 Wuhan (WT), UniProt P0DTC2)
Experiment: SPR

B1: casirivimab (REGN10933) (antibody, V domains shown)
VH: QVQLVESGGGLVKPGGSLRLSCAASGFTFSDYYMSWIRQAPGKGLEWVSYITYSGSTIYYADSVKGRFTISRDNAKSSLYLQMNSLRAEDTAVYYCARDRGTTMVPFDYWGQGTLVTVSS
VL: DIQMTQSPSSLSASVGDRVTITCQASQDITNYLNWYQQKPGKAPKLLIYAASNLETGVPSRFSGSGSGTDFTFTISGLQPEDIATYYCQQYDNLPLTFGGGTKVEIK
Q: Which results are given for B1?
A: Kd: 0.071 nM; koff: 0.00021 s⁻¹; kon: 3e+06 M⁻¹ s⁻¹

B2: imdevimab (REGN10987) (antibody, V domains shown)
VH: QVQLVESGGGVVQPGRSLRLSCAASGFTFSNYAMYWVRQAPGKGLEWVAVISYDGSNKYYADSVKGRFTISRDNSKNTLYLQMNSLRTEDTAVYYCASGSDYGDYLLVYWGQGTLVTVSS
VL: QSALTQPASVSGSPGQSITISCTGTSSDVGGYNYVSWYQQHPGKAPKLMIYDVSKRPSGVSNRFSGSKSGNTASLTISGLQSEDEADYYCNSLTSISTWVFGGGTKLTVL
Q: How did the Kd turn out when B2 was run?
A: Its Kd is 0.087 nM.

Q: What about the koff of the same binder?
A: The koff was 0.00029 s⁻¹.

Q: What about the kon of the same binder?
A: Its kon is 3.4e+06 M⁻¹ s⁻¹.
